# In PMC6502868, “Architecture of Saccharomyces cerevisiae SAGA complex” (Cell Discovery, 2019):
# T1: Spt7 (S. cerevisiae, UniProt P35177 1-1332)
# T1 construct: Spt7, S. cerevisiae, second largest SAGA subunit (SPT module); source: endogenous, in the native SAGA complex purified from fermented S. cerevisiae cells
# T1 sequence (looked up): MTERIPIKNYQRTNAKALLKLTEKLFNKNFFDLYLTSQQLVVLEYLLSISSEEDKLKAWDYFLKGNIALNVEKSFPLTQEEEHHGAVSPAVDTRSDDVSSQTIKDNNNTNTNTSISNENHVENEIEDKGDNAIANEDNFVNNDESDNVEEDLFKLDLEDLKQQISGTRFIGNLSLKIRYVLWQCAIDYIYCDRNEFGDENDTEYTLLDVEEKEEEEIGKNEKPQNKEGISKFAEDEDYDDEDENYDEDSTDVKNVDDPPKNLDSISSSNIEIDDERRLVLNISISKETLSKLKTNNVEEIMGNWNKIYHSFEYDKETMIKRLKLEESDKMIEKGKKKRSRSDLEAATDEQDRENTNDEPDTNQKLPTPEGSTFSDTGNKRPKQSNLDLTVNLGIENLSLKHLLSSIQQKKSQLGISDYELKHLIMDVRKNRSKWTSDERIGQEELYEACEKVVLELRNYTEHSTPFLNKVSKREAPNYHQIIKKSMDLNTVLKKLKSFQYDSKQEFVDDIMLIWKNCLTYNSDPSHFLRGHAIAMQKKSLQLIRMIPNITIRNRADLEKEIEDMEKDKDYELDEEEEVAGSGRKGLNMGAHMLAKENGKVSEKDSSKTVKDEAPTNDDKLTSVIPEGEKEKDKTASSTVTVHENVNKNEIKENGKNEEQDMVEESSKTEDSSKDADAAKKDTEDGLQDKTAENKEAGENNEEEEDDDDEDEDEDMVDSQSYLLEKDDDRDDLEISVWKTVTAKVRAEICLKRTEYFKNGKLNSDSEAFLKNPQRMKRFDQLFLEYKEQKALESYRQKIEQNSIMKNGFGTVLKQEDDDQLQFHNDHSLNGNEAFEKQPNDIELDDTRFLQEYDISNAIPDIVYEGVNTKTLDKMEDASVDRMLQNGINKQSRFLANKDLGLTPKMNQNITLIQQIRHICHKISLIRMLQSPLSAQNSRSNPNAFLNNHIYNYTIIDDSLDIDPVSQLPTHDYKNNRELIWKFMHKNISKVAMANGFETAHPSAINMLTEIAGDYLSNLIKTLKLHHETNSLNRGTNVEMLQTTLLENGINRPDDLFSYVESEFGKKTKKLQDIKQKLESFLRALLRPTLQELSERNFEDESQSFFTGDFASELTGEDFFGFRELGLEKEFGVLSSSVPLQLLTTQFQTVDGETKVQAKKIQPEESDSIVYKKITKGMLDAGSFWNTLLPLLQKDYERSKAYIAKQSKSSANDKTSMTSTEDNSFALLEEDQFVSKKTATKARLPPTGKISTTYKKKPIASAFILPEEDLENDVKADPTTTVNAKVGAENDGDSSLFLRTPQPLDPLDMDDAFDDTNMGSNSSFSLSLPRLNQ
# B1: Taf12 (natural protein, S. cerevisiae, UniProt Q03761 1-539, looked up)
# chain: MSSNPENSGVNANNNTGTGNADAITGAQQNMVLQPRQLQEMAAKFRTLLTEARNVGETTPRGKELMFQAAKIKQVYDALTLNRRRQQAAQAYNNTSNSNSSNPASIPTENVPNSSQQQQQQQQQTRNNSNKFSNMIKQVLTPEENQEYEKLWQNFQVRHTSIKEKETYLKQNIDRLEQEINKQTDEGPKQQLQEKKIELLNDWKVLKIEYTKLFNNYQNSKKTFYVECARHNPALHKFLQESTQQQRVQQQRVQQQQQQQQQQQQQQQQQQQQQQQRQGQNQRKISSSNSTEIPSVTGPDALKSQQQQQNTITATNNPRGNVNTSQTEQSKAKVTNVNATASMLNNISSSKSAIFKQTEPAIPISENISTKTPAPVAYRSNRPTITGGSAMNASALNTPATTKLPPYEMDTQRVMSKRKLRELVKTVGIDEGDGETVIDGDVEELLLDLADDFVTNVTAFSCRLAKHRKSDNLEARDIQLHLERNWNIRIPGYSADEIRSTRKWNPSQNYNQKLQSITSDKVAAAKNNGNNVASLNTKK
# notes: Taf12, S. cerevisiae, SAGA subunit (TAF module); source: endogenous, in the native SAGA complex purified from fermented S. cerevisiae cells
# B2: Spt3 (natural protein, S. cerevisiae, UniProt P06844 1-337, looked up)
# chain: MMDKHKYRVEIQQMMFVSGEINDPPVETTSLIEDIVRGQVIEILLQSNKTAHLRGSRSILPEDVIFLIRHDKAKVNRLRTYLSWKDLRKNAKDQDASAGVASGTGNPGAGGEDDLKKAGGGEKDEKDGGNMMKVKKSQIKLPWELQFMFNEHPLENNDDNDDMDEDEREANIVTLKRLKMADDRTRNMTKEEYVHWSDCRQASFTFRKNKRFKDWSGISQLTEGKPHDDVIDILGFLTFEIVCSLTETALKIKQREQVLQTQKDKSQQSSQDNTNFEFASSTLHRKKRLFDGPENVINPLKPRHIEEAWRVLQTIDMRHRALTNFKGGRLSSKPIIM
# notes: Spt3, S. cerevisiae, SAGA subunit (SPT module); source: endogenous, in the native SAGA complex purified from fermented S. cerevisiae cells
# Key:
# Tra1 = target: T2, Tra1 (S. cerevisiae, UniProt P38811 1-3744); experiment: cross-linking; chemical cross-linking of proteins coupled with mass spectrometry (CXMS) on the purified native SAGA complex; 139 unique inter- and 184 unique intra-subunit cross-linking pairs; details: both partners purified
# T2 construct: Tra1, S. cerevisiae, largest SAGA subunit (SPT module), 3744 residues as printed; Endogenous subunit; Purification methods and any tag are in the Supplementary Materials; also called Tra1_(SAGA); lobe A; source: endogenous, in the native SAGA complex purified from fermented S. cerevisiae cells
# T2 sequence (P38811 whole entry): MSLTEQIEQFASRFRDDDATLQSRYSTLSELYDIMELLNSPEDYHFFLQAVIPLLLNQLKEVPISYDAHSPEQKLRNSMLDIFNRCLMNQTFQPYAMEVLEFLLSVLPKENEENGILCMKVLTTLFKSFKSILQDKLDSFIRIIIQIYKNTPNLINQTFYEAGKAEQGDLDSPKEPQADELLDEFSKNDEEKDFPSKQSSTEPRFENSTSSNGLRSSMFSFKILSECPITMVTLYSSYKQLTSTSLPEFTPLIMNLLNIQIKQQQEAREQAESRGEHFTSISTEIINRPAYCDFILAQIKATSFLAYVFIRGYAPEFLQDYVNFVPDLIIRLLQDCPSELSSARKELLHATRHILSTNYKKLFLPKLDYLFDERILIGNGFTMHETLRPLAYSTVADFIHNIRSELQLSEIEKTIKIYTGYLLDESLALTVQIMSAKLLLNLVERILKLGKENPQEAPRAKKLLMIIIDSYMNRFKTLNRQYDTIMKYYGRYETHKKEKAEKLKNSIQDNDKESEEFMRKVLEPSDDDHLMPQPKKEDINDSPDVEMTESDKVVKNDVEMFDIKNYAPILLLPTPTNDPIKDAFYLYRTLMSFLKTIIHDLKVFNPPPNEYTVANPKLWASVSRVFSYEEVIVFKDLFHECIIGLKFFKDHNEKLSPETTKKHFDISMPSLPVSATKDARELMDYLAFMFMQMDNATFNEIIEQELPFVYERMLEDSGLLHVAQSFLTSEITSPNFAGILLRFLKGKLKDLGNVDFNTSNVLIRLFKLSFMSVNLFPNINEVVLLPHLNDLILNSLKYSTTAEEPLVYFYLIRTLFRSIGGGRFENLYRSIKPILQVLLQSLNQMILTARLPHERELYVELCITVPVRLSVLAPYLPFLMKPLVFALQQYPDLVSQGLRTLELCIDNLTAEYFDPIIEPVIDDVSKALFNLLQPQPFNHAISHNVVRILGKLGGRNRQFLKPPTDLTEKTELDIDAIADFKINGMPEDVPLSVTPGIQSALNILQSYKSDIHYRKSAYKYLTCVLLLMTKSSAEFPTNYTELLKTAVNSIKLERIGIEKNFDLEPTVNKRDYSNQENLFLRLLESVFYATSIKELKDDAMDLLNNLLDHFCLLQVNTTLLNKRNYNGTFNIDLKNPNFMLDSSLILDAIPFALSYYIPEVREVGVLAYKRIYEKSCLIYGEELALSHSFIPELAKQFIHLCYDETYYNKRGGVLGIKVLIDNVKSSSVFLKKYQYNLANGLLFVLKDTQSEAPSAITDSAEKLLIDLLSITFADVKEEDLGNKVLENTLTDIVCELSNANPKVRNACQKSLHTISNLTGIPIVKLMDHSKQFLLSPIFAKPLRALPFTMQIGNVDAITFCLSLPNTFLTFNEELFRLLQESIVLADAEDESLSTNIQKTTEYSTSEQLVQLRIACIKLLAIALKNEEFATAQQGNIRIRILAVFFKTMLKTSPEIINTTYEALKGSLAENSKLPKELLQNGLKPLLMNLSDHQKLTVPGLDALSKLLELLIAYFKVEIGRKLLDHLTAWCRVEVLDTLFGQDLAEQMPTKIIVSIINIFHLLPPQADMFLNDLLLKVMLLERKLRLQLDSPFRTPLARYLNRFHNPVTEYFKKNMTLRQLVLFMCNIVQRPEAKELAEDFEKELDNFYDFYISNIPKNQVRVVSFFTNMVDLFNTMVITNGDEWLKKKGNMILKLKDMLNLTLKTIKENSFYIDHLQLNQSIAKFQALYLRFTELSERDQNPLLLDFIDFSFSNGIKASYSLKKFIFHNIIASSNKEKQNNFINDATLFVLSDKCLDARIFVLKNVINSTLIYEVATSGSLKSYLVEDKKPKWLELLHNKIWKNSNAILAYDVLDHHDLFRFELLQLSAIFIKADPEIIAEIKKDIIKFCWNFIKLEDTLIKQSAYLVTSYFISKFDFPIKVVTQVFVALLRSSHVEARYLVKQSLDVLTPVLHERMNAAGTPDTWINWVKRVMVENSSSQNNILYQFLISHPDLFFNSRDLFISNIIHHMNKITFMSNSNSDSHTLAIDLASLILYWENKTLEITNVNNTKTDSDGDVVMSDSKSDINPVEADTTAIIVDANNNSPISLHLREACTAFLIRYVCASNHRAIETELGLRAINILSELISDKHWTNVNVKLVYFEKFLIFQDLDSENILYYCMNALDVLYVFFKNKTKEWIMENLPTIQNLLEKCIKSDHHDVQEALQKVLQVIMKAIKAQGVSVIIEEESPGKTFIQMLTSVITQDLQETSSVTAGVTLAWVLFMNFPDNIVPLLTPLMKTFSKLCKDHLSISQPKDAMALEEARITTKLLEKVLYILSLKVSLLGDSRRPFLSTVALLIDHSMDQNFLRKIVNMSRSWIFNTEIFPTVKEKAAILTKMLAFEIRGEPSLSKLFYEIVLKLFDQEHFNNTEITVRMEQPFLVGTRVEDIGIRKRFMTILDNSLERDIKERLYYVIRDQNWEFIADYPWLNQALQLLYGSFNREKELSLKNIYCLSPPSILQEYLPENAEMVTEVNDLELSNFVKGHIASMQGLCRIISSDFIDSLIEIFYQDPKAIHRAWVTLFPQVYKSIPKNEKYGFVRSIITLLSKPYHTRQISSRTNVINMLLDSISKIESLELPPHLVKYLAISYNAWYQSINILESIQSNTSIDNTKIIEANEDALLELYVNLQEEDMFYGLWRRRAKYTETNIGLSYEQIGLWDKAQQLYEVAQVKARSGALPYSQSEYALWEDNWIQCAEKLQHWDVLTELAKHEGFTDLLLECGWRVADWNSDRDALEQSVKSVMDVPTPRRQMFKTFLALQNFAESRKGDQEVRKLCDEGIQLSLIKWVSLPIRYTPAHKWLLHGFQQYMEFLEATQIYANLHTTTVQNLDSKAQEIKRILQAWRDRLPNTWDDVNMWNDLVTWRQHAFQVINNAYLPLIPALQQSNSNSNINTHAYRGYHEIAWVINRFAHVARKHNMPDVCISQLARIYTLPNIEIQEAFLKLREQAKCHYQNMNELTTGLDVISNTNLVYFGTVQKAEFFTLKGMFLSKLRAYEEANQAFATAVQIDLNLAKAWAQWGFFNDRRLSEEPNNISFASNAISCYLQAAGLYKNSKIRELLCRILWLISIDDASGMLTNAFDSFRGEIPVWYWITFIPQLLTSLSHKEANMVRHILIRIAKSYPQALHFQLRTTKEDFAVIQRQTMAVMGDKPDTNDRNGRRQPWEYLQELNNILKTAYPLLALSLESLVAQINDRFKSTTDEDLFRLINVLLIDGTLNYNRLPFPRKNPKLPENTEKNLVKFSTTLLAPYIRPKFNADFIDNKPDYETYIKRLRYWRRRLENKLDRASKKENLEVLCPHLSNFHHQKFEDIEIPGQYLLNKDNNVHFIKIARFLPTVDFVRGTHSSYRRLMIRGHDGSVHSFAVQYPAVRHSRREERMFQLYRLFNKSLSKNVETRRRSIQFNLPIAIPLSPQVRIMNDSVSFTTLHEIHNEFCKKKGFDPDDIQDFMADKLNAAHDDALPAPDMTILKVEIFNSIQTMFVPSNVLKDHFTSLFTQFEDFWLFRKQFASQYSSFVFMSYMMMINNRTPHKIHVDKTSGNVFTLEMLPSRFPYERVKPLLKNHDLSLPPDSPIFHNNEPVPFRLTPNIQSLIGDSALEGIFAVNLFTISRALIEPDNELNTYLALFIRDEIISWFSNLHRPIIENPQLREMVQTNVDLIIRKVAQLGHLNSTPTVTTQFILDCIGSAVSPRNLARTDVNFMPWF
# Spt7 = target: T1, Spt7; experiment: as above; details: both partners purified
Binder,binding result (Tra1),binding result (Spt7)
B1,binds,binds
B2,binds,binds
